The values below come from patent US11464867B2, “Multimeric elastin-like polypeptides” (University of Southern California, priority 2018, dated 2022).

Like-named read-outs stand apart in the source and are kept apart here.

The nature of series [1]: CsA encapsulation by two-phase solvent evaporation, RP-HPLC. Format: physicochemical. The settings on record: for CsA loading ratio: FIG. 16. The protocol:
The mixture was incubated at 37° C. and samples were collected at different time points up to 48 h.
This was followed by high-speed centrifugation and filtration to remove the excess insoluble drug. […] The mobile phase flow rate was set to 1.0 ml/min. The linear gradient from 20% to 95% of methanol was applied from 0 to 5 min. Then the mobile phase was changed to 95% methanol isocratic flow for 10 min.
This was followed by high-speed centrifugation and filtration to remove the excess insoluble drug. The loading ratio was then determined by reversed-phase high-performance liquid chromatography (RP-HPLC) analysis method.
The drug loading capability of 2nd and 3rd generation carriers were also tested using the same encapsulation method detailed above employing the method of Shi, et al., 2013.

The nature of series [2]: Isothermal titration calorimetry of 5FA/Rapa interaction. In kind it is binding. The settings on record: ITC. An excerpt:
Using Isothermal Titration calorimetry (ITC), the binding stoichiometry of 5FA/Rapa interaction was estimated to be 5. […] An overall negative Gibbs free energy (−10 kJ/mol interactions) indicates FKBP/Rapa binding is thermodynamically favorable.
In general terms: ITC needs no label: the signal is the heat of the interaction.

Series [3] in a line: Phase transition temperature by optical density (UV-Vis, 350 nm) versus temperature. Format: physicochemical. The settings on record: for Transition temperature at 25 μM: Table 5; for Transition temperature (Tt): at 25 μM, 1° C./min. The protocol:
The temperature with the maximum positive slope was defined as the phase transition temperature for each condition. (FIG. 2B) The concentration-temperature phase diagram was determined for both ELPs, and fit to the following equation: Tt=b−m Log10[CELP].
Both ELPs at different concentrations (5 μM to 100 μM) were subject to a precisely controlled temperature increase from 25 to 75° C. at a rate of 1° C./min. The Tt of ELPs is defined as the temperature at which the first derivative of the optical density with respect to the temperature reaches a maximum.

The test system of series [4] is IL-2 secretion, Jurkat cells. The series is described as follows: IL-2 secretion assay in activated Jurkat cells (ELISA). The settings on record: Homo sapiens, n=3, mean±SD. Format: cell-based. The protocol: Upon stimulation, Jurkat cells produce IL-2.
IL-2 concentration in culture media is then assessed using ELISA assay.
(An ELISA detects its analyte on a solid surface through an enzyme-linked reagent.)

The nature of series [5]: Multivariate fit of the phase diagram of ELP monoblock copolymers. In kind it is physicochemical. The settings on record: for Tc: critical transition temperature; for n: dependence on inverse of ELP length; for m: dependence on natural logarithm of concentration; for K: interaction term between length and concentration. An excerpt:
The Tt of the ELP component can be modified by varying ELP chain length, as the Tt generally increases with decreasing MW. For polypeptides having a molecular weight >100,000, the hydrophobicity scale developed by Urry et al. (PCT/US96/05186, which is hereby incorporated by reference in its entirety) is preferred for predicting the approximate Tt of a specific ELP sequence. However, in some embodiments, ELP component length can be kept relatively small, while maintaining a target Tt, by incorporating a larger fraction of hydrophobic guest residues (e.g., amino acid residues having hydrophobic side chains) in the ELP sequence. For polypeptides having a molecular weight <100,000, the Tt may be predicted or determined by the following function:
[formula] where Tc is a critical transition temperature, m is the dependence on the natural logarithm of concentration, n is the dependence on the inverse of the ELP length l, and k is an interaction term between length and concentration.

A short description of series [6]: Dynamic light scattering (DLS) hydrodynamic radius and stability. The settings on record: 99.2% by mass of fraction 2. In kind it is physicochemical. As for the experimental part: FIGS. 5A-5D: CA192 (SEQ ID NO: 3) has a good stability in terms of hydrodynamic radius. There are two fractions present in the CA192 (SEQ ID NO: 3) solution: an aggregated form and dimeric form. A dimerized form has similar hydrodynamic radius, Rh as A192. […] Drug-loaded CA192 (SEQ ID NO: 3) has a mean Rh of 64.5±0.5 nm (p<0.05). […] (FIG. 5C) Size Exclusion Chromatography (SEC) was conducted to fractionate CA192 (SEQ ID NO: 3) depending on their particle size. Two fractions were observed. […] In contrast, the fraction 1 contains a mixture of larger aggregates.
The hydrodynamic radius (Rh) of both the loaded and unloaded fusion protein, along with plain A192, was measured via dynamic light scattering (DLS) using a DynaPro Plate Reader II from Wyatt Technology. Before the DLS measurement, solutions were filtered through […] pore size filters. The concentration of each solution was then adjusted to 20 μM. 60 μL from each sample was pipetted into three different wells on the plate reader and covered by 15 μL mineral oil each to avoid solvent evaporation. Centrifugation was then performed to remove air bubbles. […] Based on this DLS method, Applicants performed a stability assay to explore the stability of the fusion protein by measuring the mean Rh shift during incubation at physiological temperature. Briefly, the fusion solution was incubated at 37° C. for different periods of time up to 48 h and the mean Rh of CA192 at these different time points was measured with DLS. […] There might be some slight aggregation occurring in the CA192 protein solution. […] To determine if this was the case, further separation was conducted with size exclusion chromatography (SEC). This process was performed at 4° C. using a Hiload 26/600 column (26×600 mm, particle size 24-44 μM). […] Fragments with absorption above 10 mAu were collected and concentrated with a Spin-X concentrator (pore size 10 kDa). […] (FIG. 5D) Through measuring the CA192 concentration of both fractions, Applicants determined that 20.8% by mass in solution is represented by the multimerized particles. […]

On to “3(CA)C: 3rd generation carrier CypA-A24-CypA-A24-CypA-A24-CypA, SEQ ID NO: 9”, for which, in series [1], the CsA loading ratio was determined as 209.0%.
“5FA: 5 FKBP domains linked by ELP A24, SEQ ID NO: 10”: in series [2], the Gibbs free energy was −10 kJ/mol interactions, the TAS is on record as −48 kJ/mol interactions and the binding enthalpy is recorded as −58 kJ/mol interactions. Also, the Kd (usually the concentration at which binding is half-saturated) in series [2] (true KD likely lower, beyond limit of detection, read-out: equilibrium dissociation constant (KD)) was not above 1500 pM. The “Transition temperature at 25 μM” value in series [3] was 53.2 °C.
For the molecule “5FV: 5 FKBP domains linked by ELP V24, SEQ ID NO: 11”, in series [3], the “Transition temperature at 25 μM” value was determined as 27.7 °C.
Turning to `C/C=C/C[C@@H](C)[C@@H](O)[C@H]1C(=O)N[C@@H](CC)C(=O)N(C)CC(=O)N(C)[C@@H](CC(C)C)C(=O)N[C@@H](C(C)C)C(=O)N(C)[C@@H](CC(C)C)C(=O)N[C@@H](C)C(=O)N[C@H](C)C(=O)N(C)[C@@H](CC(C)C)C(=O)N(C)[C@@H](CC(C)C)C(=O)N(C)[C@@H](C(C)C)C(=O)N1C` [CsA, Cyclosporin A], the IC50 (usually the concentration that gives 50% inhibition) is 522 ± 152 pM in series [4] (PMA and Ionomycin, 6 h, read-out: IC50, IL-2 secretion assay); 522 ± 152 pM in series [4] (FIG. 10 legend, read-out: IC50, IL-2 inhibition).
Take “(Val-Pro-Gly-Ala-Gly): ELP monoblock library, SEQ ID NO: 61 (VPGAG)”: in series [5], the Tc came to 40.5 ± 1.6 °C, the n is 7009 ± 345 °C pentamers, the m is recorded as 0 ° C./ln(μM) and the K is −850.1 ± 51.5 °C pentamers/ln(μM).
On the same counts, the results for “(Val-Pro-Gly-Ile-Gly): ELP monoblock library, SEQ ID NO: 63 (VPGIG)” are 13.0 ± 0.6 °C, 760 ± 30 °C pentamers, 0 ° C./ln(μM) and −81.2 ± 7.9 °C pentamers/ln(μM).
As to “(Val-Pro-Gly-Ser-Gly): ELP monoblock library, SEQ ID NO: 60 (VPGSG)”, in series [5], the Tc is 63.6 ± 1.1 °C, the m is given as −1.86 ± 0.31 ° C./ln(μM) and the K was 0 °C pentamers/ln(μM).
As to “(Val-Pro-Gly-Val-Gly): ELP monoblock library, SEQ ID NO: 62 (VPGVG)”, in series [5], the Tc is 21.2 ± 0.9 °C, the n came out at 1607 ± 90 °C pentamers, the m is given as 0 ° C./ln(μM) and the K is −163.1 ± 23.3 °C pentamers/ln(μM).
In the case of “CA96C: 2nd generation carrier CypA-A96-CypA, SEQ ID NO: 8”, the CsA loading ratio in series [1] is given as 127.5%.
For the molecule “CV96: cyclophilin A fused to ELP V96, SEQ ID NO: 4”, in series [1] (in words), the “CsA loading compared with a comparator” value is listed as “higher loading ratio”. Besides, the “Transition temperature (Tt)” value in series [3] was determined as 31.2 °C. Further, in series [3] (fit Tt = b - m Log10[CELP], Table 3), the “Slope, m” value is 4.4 ° C./Log10(μm). Moreover, in series [3] (intercept at 1 μM, Table 3), the “Intercept, b” value stood at 36.8 °C.
For “dimerized CA192: dimeric fraction of CA192 isolated by size exclusion chromatography”, the “hydrodynamic radius (Rh) after SEC” value in series [6] amounted to 6.5±0.1 nm. Moreover, the “Transition temperature (Tt)” value in series [3] is 49.3 °C.
